The labels stand for the following.
B1: 365_H03 (antibody, V domains shown)
VH: EVQLLESGGGLVQPGGSLRLSCAASGFTFDDYGMNWVRQAPGKGLEWVAGINYNGGYKSYADSVKGRFTISRDNSKNTLYLQMNSLRAEDTAVYYCARSANWHDTALDYWGQGTLVTVSS
VL: DIQMTQSPSSLSASVGDRVTITCRASQSILSYVNWYQQKPGKAPKLVIYAATSLHSGVPSRFSGSGSGTDFTLTISSLQPEDFATYYCQQSYNNPLTFGGGTKVEIK
B2: 366_F05 (antibody, V domains shown)
VH: EVQLLESGGGLVQPGGSLRLSCAASGFTFSSYSMNWVRQAPGKGLEWVANINYNSGYKSYADSVKGRFTISRDNSKNTLYLQMNSLRAEDTAVYYCARSANWHDTHLDYWGQGTLVTVSS
VL: DIQMTQSPSSLSASVGDRVTITCRASQSILTYLNWYQQKPGKAPKLLIYAATSRASGVPSRFSGSGSGTDFTLTISSLQPEDFATYYCQQSDNTPLTFGGGTKVEIK
B3: 367_A04 (antibody, V domains shown)
VH: EVQLLESGGGLVQPGGSLRLSCAASGFTFSSYSMNWVRQAPGKGLEWVSNINYNSGYKSYADSVKGRFTISRDNSKNTLYLQMNSLRAEDTAVYYCARSANWHDTALDYWGQGTLVTVSS
VL: DIQMTQSPSSLSASVGDRVTITCRASQSIITYLNWYQQKPGKAPKLLIYAATSRASGVPSRFSGSGSGTDFTLTISSLQPEDFATYYCQQSDDSPLTFGGGTKVEIK
B4: 366_F04 (antibody, V domains shown)
VH: EVQLLESGGGLVQPGGSLRLSCAASGFTFSDYGMNWVRQAPGKGLEWVSGINYNGGYTSYADSVKGRFTISRDNSKNTLYLQMNSLRAEDTAVYYCARSANWHDTALDYWGQGTLVTVSS
VL: DIQMTQSPSSLSASVGDRVTITCRASQSILSYVNWYQQKPGKAPKLVIYATTSRHSGVPSRFSGSGSGTDFTLTISSLQPEDFATYYCQQSYESPLTFGGGTKVEIK
B5: 366_B12 (antibody, V domains shown)
VH: EVQLLESGGGLVQPGGSLRLSCAASGFTFSSYSMNWVRQAPGKGLEWVAGINYNSGYKGYADSVKGRFTISRDNSKNTLYLQMNSLRAEDTAVYYCARSANWHDTALDYWGQGTLVTVSS
VL: DIQMTQSPSSLSASVGDRVTITCRASQSILTYVNWYQQKPGKAPKLLIYAATSRASGVPSRFSGSGSGTDFTLTISSLQPEDFATYYCQQSYDNPLTFGGGTKVEIK
B6: 366_D04 (antibody, V domains shown)
VH: EVQLLESGGGLVQPGGSLRLSCAASGFTFSSYSMNWVRQAPGKGLEWVSGINYNGGYTSYADSVKGRFTISRDNSKNTLYLQMNSLRAEDTAVYYCARSANWHDTALDYWGQGTLVTVSS
VL: DIQMTQSPSSLSASVGDRVTITCRASQSISSYVNWYQQKPGKAPKLLIYATTSRASGVPSRFSGSGSGTDFTLTISSLQPEDFATYYCQQSYETPLTFGGGTKVEIK
B7: 366_H08 (antibody, V domains shown)
VH: EVQLLESGGGLVQPGGSLRLSCAASGFTFSDYGMNWVRQAPGKGLEWVASINYNSGYTSYADSVKGRFTISRDNSKNTLYLQMNSLRAEDTAVYYCARSANWHDTHLDYWGQGTLVTVSS
VL: DIQMTQSPSSLSASVGDRVTITCRASQSILSYVNWYQQKPGKAPKLLIYAATSRHSGVPSRFSGSGSGTDFTLTISSLQPEDFATYYCQQSYNNPLTFGGGTKVEIK
B8: 367_B03 (antibody, V domains shown)
VH: EVQLLESGGGLVQPGGSLRLSCAASGFTFSSYGMNWVRQAPGKGLEWVAGINYNGGYKSYADSVKGRFTISRDNSKNTLYLQMNSLRAEDTAVYYCARSANWHDTALDYWGQGTLVTVSS
VL: DIQMTQSPSSLSASVGDRVTITCRASQSILTYLNWYQQKPGKAPKLLIYAATSLASGVPSRFSGSGSGTDFTLTISSLQPEDFATYYCQQSYNLPLTFGGGTKVEIK
B9: 366_B08 (antibody, V domains shown)
VH: EVQLLESGGGLVQPGGSLRLSCAASGFTFDSYGMNWVRQAPGKGLEWVSNINYNGGYKGYADSVKGRFTISRDNSKNTLYLQMNSLRAEDTAVYYCARSANWHDTHLDYWGQGTLVTVSS
VL: DIQMTQSPSSLSASVGDRVTITCRASQSIVSYLNWYQQKPGKAPKLLIYAATSRHSGVPSRFSGSGSGTDFTLTISSLQPEDFATYYCQQSYDNPLTFGGGTKVEIK
B10: 366_G04 (antibody, V domains shown)
VH: EVQLLESGGGLVQPGGSLRLSCAASGFTFSSYSMNWVRQAPGKGLEWVSGINYNSGYTSYADSVKGRFTISRDNSKNTLYLQMNSLRAEDTAVYYCARSANWHDTALDYWGQGTLVTVSS
VL: DIQMTQSPSSLSASVGDRVTITCRASQSIITYLNWYQQKPGKAPKLLIYAATSRASGVPSRFSGSGSGTDFTLTISSLQPEDFATYYCQQSDDTPLTFGGGTKVEIK
B11: 366_A07 (antibody, V domains shown)
VH: EVQLLESGGGLVQPGGSLRLSCAASGFTFSSYGMHWVRQAPGKGLEWVASINYNGGYTGYADSVKGRFTISRDNSKNTLYLQMNSLRAEDTAVYYCARSANWHDTALDYWGQGTLVTVSS
VL: DIQMTQSPSSLSASVGDRVTITCRASQSIVSYVNWYQQKPGKAPKLVIYAATSRHSGVPSRFSGSGSGTDFTLTISSLQPEDFATYYCQQSYESPLTFGGGTKVEIK
B12: 366_F07 (antibody, V domains shown)
VH: EVQLLESGGGLVQPGGSLRLSCAASGFTFSDYSMNWVRQAPGKGLEWVAGINYNSGYTSYADSVKGRFTISRDNSKNTLYLQMNSLRAEDTAVYYCARSANWHDTHLDYWGQGTLVTVSS
VL: DIQMTQSPSSLSASVGDRVTITCRASQSIITYLNWYQQKPGKAPKLLIYAATSRASGVPSRFSGSGSGTDFTLTISSLQPEDFATYYCQQSYETPLTFGGGTKVEIK
B13: 365_H11 (antibody, V domains shown)
VH: EVQLLESGGGLVQPGGSLRLSCAASGFTFSSYSMNWVRQAPGKGLEWVSGINYNSGYTGYADSVKGRFTISRDNSKNTLYLQMNSLRAEDTAVYYCARSANWHDTALDYWGQGTLVTVSS
VL: DIQMTQSPSSLSASVGDRVTITCRASQSILTYLNWYQQKPGKAPKLLIYAATSRASGVPSRFSGSGSGTDFTLTISSLQPEDFATYYCQQSYDSPLTFGGGTKVEIK
B14: 367_B08 (antibody, V domains shown)
VH: EVQLLESGGGLVQPGGSLRLSCAASGFTFSDYGMNWVRQAPGKGLEWVSGINYNGGYKGYADSVKGRFTISRDNSKNTLYLQMNSLRAEDTAVYYCARSANWHDTALDYWGQGTLVTVSS
VL: DIQMTQSPSSLSASVGDRVTITCRASQSILTYLNWYQQKPGKAPKLVIYAATSRASGVPSRFSGSGSGTDFTLTISSLQPEDFATYYCQQSYDNPLTFGGGTKVEIK
B15: 367_A05 (antibody, V domains shown)
VH: EVQLLESGGGLVQPGGSLRLSCAASGFTFSDYGMNWVRQAPGKGLEWVSSINYNGGYKGYADSVKGRFTISRDNSKNTLYLQMNSLRAEDTAVYYCARSANWHDTALDYWGQGTLVTVSS
VL: DIQMTQSPSSLSASVGDRVTITCRASQSILSYLNWYQQKPGKAPKLVIYAVTSRASGVPSRFSGSGSGTDFTLTISSLQPEDFATYYCQQSYDSPLTFGGGTKVEIK
B16: 366_G05 (antibody, V domains shown)
VH: EVQLLESGGGLVQPGGSLRLSCAASGFTFDSYGMNWVRQAPGKGLEWVSNINYNGGYTSYADSVKGRFTISRDNSKNTLYLQMNSLRAEDTAVYYCARSANWHDTALDYWGQGTLVTVSS
VL: DIQMTQSPSSLSASVGDRVTITCRASQSIISYVNWYQQKPGKAPKLVIYAATSRASGVPSRFSGSGSGTDFTLTISSLQPEDFATYYCQQSYENPLTFGGGTKVEIK
B17: 367_B07 (antibody, V domains shown)
VH: EVQLLESGGGLVQPGGSLRLSCAASGFTFSDYSMNWVRQAPGKGLEWVAGINYNSGYTGYADSVKGRFTISRDNSKNTLYLQMNSLRAEDTAVYYCARSANWHDTHLDYWGQGTLVTVSS
VL: DIQMTQSPSSLSASVGDRVTITCRASQSIISYVNWYQQKPGKAPKLLIYAATSLASGVPSRFSGSGSGTDFTLTISSLQPEDFATYYCQQSYNLPLTFGGGTKVEIK
B18: 366_E10 (antibody, V domains shown)
VH: EVQLLESGGGLVQPGGSLRLSCAASGFTFDSYGMNWVRQAPGKGLEWVSGINYNGGYKGYADSVKGRFTISRDNSKNTLYLQMNSLRAEDTAVYYCARSANWHDTHLDYWGQGTLVTVSS
VL: DIQMTQSPSSLSASVGDRVTITCRASQSILSYVNWYQQKPGKAPKLVIYAATSRHSGVPSRFSGSGSGTDFTLTISSLQPEDFATYYCQQSYSLPLTFGGGTKVEIK
B19: 366_H07 (antibody, V domains shown)
VH: EVQLLESGGGLVQPGGSLRLSCAASGFTFSSYGMHWVRQAPGKGLEWVSGINYNGGYTSYADSVKGRFTISRDNSKNTLYLQMNSLRAEDTAVYYCARSANWHDTALDYWGQGTLVTVSS
VL: DIQMTQSPSSLSASVGDRVTITCRASQSIISYVNWYQQKPGKAPKLVIYAVTSRASGVPSRFSGSGSGTDFTLTISSLQPEDFATYYCQQSYENPLTFGGGTKVEIK
B20: 366_H06 (antibody, V domains shown)
VH: EVQLLESGGGLVQPGGSLRLSCAASGFTFSSYGMNWVRQAPGKGLEWVSSINYNGGYTGYADSVKGRFTISRDNSKNTLYLQMNSLRAEDTAVYYCARSANWHDTALDYWGQGTLVTVSS
VL: DIQMTQSPSSLSASVGDRVTITCRASQSILSYLNWYQQKPGKAPKLLIYATTSRASGVPSRFSGSGSGTDFTLTISSLQPEDFATYYCQQSYDTPLTFGGGTKVEIK
B21: 366_B10 (antibody, V domains shown)
VH: EVQLLESGGGLVQPGGSLRLSCAASGFTFSSYGMNWVRQAPGKGLEWVSGINYNSGYTSYADSVKGRFTISRDNSKNTLYLQMNSLRAEDTAVYYCARSANWHDTALDYWGQGTLVTVSS
VL: DIQMTQSPSSLSASVGDRVTITCRASQSIISYLNWYQQKPGKAPKLLIYAATSRASGVPSRFSGSGSGTDFTLTISSLQPEDFATYYCQQSYDNPLTFGGGTKVEIK

In this assay the target is Human Fc (human). Kind of assay: ELISA; negative control.
As to B1, the optical density was determined as 0.366 OD.

Take B2: the optical density came to 0.279 OD.

For the molecule B3, the optical density is 0.267 OD.

In the case of B4, the optical density worked out at 0.281 OD.

Turning to B5, the optical density was determined as 0.311 OD.

In the case of B6, the optical density was found to be 0.338 OD.

As for B7, the optical density stood at 0.417 OD.

With B8, the optical density was 0.318 OD.

Molecule B9 yielded an optical density of 0.403 OD.

With B10, the optical density is 0.31 OD.

B11 gave an optical density of 0.309 OD.

The molecule B12 had an optical density of 0.353 OD.

For B13, the optical density was determined as 0.375 OD.

Consider B14, for which the optical density stood at 0.37 OD.

In the case of B15, the optical density turned out to be 0.269 OD.

B16 displayed an optical density of 0.28 OD.

Take B17: the optical density was determined as 0.236 OD.

B18 registered an optical density of 0.271 OD.

As to B19, the optical density came to 0.285 OD.

B20 yielded an optical density of 0.285 OD.

Molecule B21 returned an optical density of 0.424 OD.

The values above are taken from US20210380703A1.
